These results are taken from the RNAGym collection of RNA variant scans (doi:10.7554/elife.80360).

B1: Hammerhead Ribozyme (parent)
chain: ACCGGAUGUGCUUUCCGGUCUGAUGAGUCCGUGAGGACGAAACAG

Variants of B1 are the subject of this data set. The experiment in a line: self-cleavage, relative activity (ratio to wild type); higher = more cleavage; co-transcriptional.
G8U A34U: the self-cleavage stood at 0.792.
Turning to G8U A34C, the self-cleavage came out at 0.925.
With G8C C43G, the self-cleavage is 0.403.
For G8C C43U the value was 0.455; for G8C C43A, 0.343; for G8C C38G, 0.596.
Then G8C C38A, with 0.8.
G8C C38U: the self-cleavage was 0.979.
Then G8C G33A, with 1.11; and G8C G33U, with 0.971; and G8C G33C, with 0.867.
For G8A U28C, the self-cleavage was determined as 1.36.
In the case of G8A U28G, the self-cleavage is 1.16.
G8A U28A: the self-cleavage was found to be 0.738.
On to G8C G25A, for which the self-cleavage was determined as 0.284.
For G8C G25C the value was 0.242.
With G8C G25U, the self-cleavage turned out to be 0.329.
For G8A U21C the value was 0.742; for G8A U21A, 0.475.
Then G8A U21G, with 0.4.
For G8A G39A the value was 0.417.
As to G8A G39C, the self-cleavage is 0.298.
As for G8A G39U, the self-cleavage came out at 0.369.
Then G8A C43G, with 0.344.
For G8A C43U the value was 0.381; for G8A C43A, 0.335.
For U9A A40U the value was 0.367; for U9A A40G, 0.349; for U9A A40C, 0.49.
Turning to G8U U14A, the self-cleavage was found to be 1.15.
Then G8U U14C, with 1.06; and G8U U14G, with 0.94; and G8U A42G, with 0.367.
For G8U A42U, the self-cleavage was 0.344.
Then G8U A42C, with 0.422; and G8A U9C, with 1.33; and G8A U9G, with 0.85.
For G8A U9A the value was 0.863; for G8U A40G, 0.376.
Then G8U A40C, with 0.566; and G8U A40U, with 0.301; and G8U C29U, with 1.01.
Turning to G8U C29G, the self-cleavage stood at 0.847.
Then G8U C29A, with 0.488; and G8A C29U, with 0.966.
As to G8A C29A, the self-cleavage stood at 0.565.
Consider G8A C29G, for which the self-cleavage worked out at 0.667.
Then U9A A44G, with 1.46; and U9A A44U, with 0.557; and U9A A44C, with 0.523.
Then G8U G27C, with 0.794; and G8U G27A, with 0.922; and G8U G27U, with 0.554.
As to G8A C30G, the self-cleavage worked out at 1.04.
Then G8A C30A, with 0.929.
In the case of G8A C30U, the self-cleavage stood at 0.826.
Then G8A G18A, with 0.664; and G8A G18U, with 0.635.
G8A G18C: the self-cleavage was 0.574.
For G8U A37C the value was 1.09; for G8U A37U, 0.774; for G8U A37G, 0.906.
With U9A A41U, the self-cleavage was 0.37.
Take U9A A41G: the self-cleavage amounted to 0.357.
For U9A A41C the value was 0.455; for G8U C15A, 0.884.
Then G8U C15G, with 0.637; and G8U C15U, with 1.05; and G8C C29G, with 0.571.
On to G8C C29U, for which the self-cleavage worked out at 0.758.
Take G8C C29A: the self-cleavage came out at 0.548.
In the case of G8U G18A, the self-cleavage turned out to be 0.684.
Then G8U G18U, with 0.779; and G8U G18C, with 0.513.
For G8U C20A the value was 0.571; for G8U C20G, 0.392.
For G8U C20U, the self-cleavage came out at 0.551.
Turning to G8U G25C, the self-cleavage stood at 0.302.
For G8U G25U the value was 0.391; for G8U G25A, 0.317.
For G8U C30U the value was 0.942; for G8U C30G, 0.942; for G8U C30A, 0.803.
For G8C A26C the value was 0.434; for G8C A26U, 0.827; for G8C A26G, 0.278.
Consider G8U G31U, for which the self-cleavage turned out to be 1.08.
Then G8U G31A, with 1.23; and G8U G31C, with 1.18.
Regarding G8C A40C, the self-cleavage is 0.428.
In the case of G8C A40U, the self-cleavage was determined as 0.286.
On to G8C A40G, for which the self-cleavage is 0.372.
For G8C A34C the value was 0.83; for G8C A34U, 0.988; for G8C A34G, 1.11.
For the variant G8C C30G, the self-cleavage was determined as 0.886.
Take G8C C30A: the self-cleavage came out at 0.708.
In the case of G8C C30U, the self-cleavage came out at 0.981.
As for G8A G10U, the self-cleavage came to 1.31.
For G8A G10C the value was 1.46; for G8A G10A, 1.16; for G8A G25U, 0.353.
Then G8A G25C, with 0.276; and G8A G25A, with 0.405.
In the case of G8A C15G, the self-cleavage worked out at 0.957.
G8A C15A: the self-cleavage was 0.937.
For G8A C15U the value was 0.835; for G8C A37C, 1.05.
Then G8C A37U, with 0.842.
As to G8C A37G, the self-cleavage is 1.2.
Take G8C G22A: the self-cleavage stood at 0.347.
For the variant G8C G22C, the self-cleavage stood at 0.339.
Regarding G8C G22U, the self-cleavage was found to be 0.341.
For G8U U28C the value was 1.23; for G8U U28A, 0.966.
G8U U28G: the self-cleavage turned out to be 0.789.
U9A A42C: the self-cleavage came to 0.32.
For U9A A42U the value was 0.332; for U9A A42G, 0.218.
For U9A the value was 1.02.
In the case of G8C C11G, the self-cleavage was 1.25.
In the case of G8C C11A, the self-cleavage came out at 1.43.
Consider G8C C11U, for which the self-cleavage is 1.02.
In the case of G8U U12G, the self-cleavage was determined as 0.993.
Regarding G8U U12C, the self-cleavage turned out to be 1.35.
As for G8U U12A, the self-cleavage was 0.842.
In the case of G8C G36U, the self-cleavage worked out at 0.772.
For G8C G36A the value was 0.652; for G8C G36C, 0.791; for G8C U28C, 1.16.
Take G8C U28G: the self-cleavage is 1.05.
In the case of G8C U28A, the self-cleavage came to 1.22.
G8A C20G: the self-cleavage stood at 0.381.
Then G8A C20U, with 0.594; and G8A C20A, with 0.501; and G8C A41G, with 0.298.
For G8C A41C the value was 0.312; for G8C A41U, 0.388.
For G8U G35A the value was 0.811.
Regarding G8U G35U, the self-cleavage was 0.616.
Then G8U G35C, with 0.842.
For G8C the value was 1.06; for G8U, 1.02.
Then G8C U13G, with 1.19; and G8C U13C, with 1.2; and G8C U13A, with 1.41.
For G8U A41G, the self-cleavage stood at 0.328.
Consider G8U A41U, for which the self-cleavage is 0.34.
For G8U A41C the value was 0.324.
For G8A G27U the value was 0.451.
For the variant G8A G27C, the self-cleavage came out at 0.665.
G8A G27A: the self-cleavage was found to be 0.874.
Then G8A U24C, with 0.979.
On to G8A U24G, for which the self-cleavage was 1.32.
Then G8A U24A, with 1.11.
On to G8U C43G, for which the self-cleavage came to 0.333.
With G8U C43U, the self-cleavage is 0.677.
Then G8U C43A, with 0.254.
Take G8U C11U: the self-cleavage is 1.37.
Regarding G8U C11G, the self-cleavage stood at 1.21.
As to G8U C11A, the self-cleavage is 1.11.
For G8C U14A the value was 1.08.
Take G8C U14G: the self-cleavage was determined as 1.11.
Then G8C U14C, with 0.785; and G8U A23G, with 0.363; and G8U A23U, with 0.324.
For G8U A23C the value was 0.504.
